Broadly, the Kd is the concentration at which binding is half-saturated. What is called Ki is the dissociation constant of the complex between target and ligand, obtained from inhibition or displacement. The low end stands for tighter binding, the high end for weaker binding. What is called IC50 is the concentration that gives 50% inhibition.

Data set [1] concerns the target T1, FCoV N (Feline infectious peritonitis virus (strain 79-1146), UniProt P25909). Description: biolayer interferometry, His-tagged N immobilized on Ni-NTA biosensor. Particulars: read-out: Kd ± SD. In kind it is binding. From the text: biolayer interferometry, His-tagged N immobilized on Ni-NTA biosensor on FCoV N
The target in data set [2] is T1, FCoV N. Nature of the data set: filter binding, Lineweaver-Burk secondary plot, N with radiolabeled vRNA […]' NCR.
The target in data set [3] is T1, FCoV N. Nature of the data set: biolayer interferometry, inhibition of N binding to immobilized biotinylated vRNA […]' NCR. In general terms: In BLI a coated tip is dipped into the sample, and binding shifts an interference pattern.
In data set [4] the target is T2, FCoV nucleocapsid protein N (Feline alphacoronavirus (FCoV/FIPV) …, UniProt P25909 1-377).
T2 sequence: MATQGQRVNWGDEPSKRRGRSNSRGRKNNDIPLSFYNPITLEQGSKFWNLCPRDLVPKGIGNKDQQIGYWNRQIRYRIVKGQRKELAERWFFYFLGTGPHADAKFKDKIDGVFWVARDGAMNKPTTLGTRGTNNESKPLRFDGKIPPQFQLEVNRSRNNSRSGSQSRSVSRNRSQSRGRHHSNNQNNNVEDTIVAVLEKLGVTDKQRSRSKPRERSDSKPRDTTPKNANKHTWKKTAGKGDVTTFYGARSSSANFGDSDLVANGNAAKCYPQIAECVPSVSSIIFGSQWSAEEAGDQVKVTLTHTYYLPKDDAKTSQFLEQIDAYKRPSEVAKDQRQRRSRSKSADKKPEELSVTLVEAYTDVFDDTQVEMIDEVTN
Description: filter binding; 80 mM NaCl; Filter binding: 40 mM Tris-HCl pH 7.4, 80 mM NaCl (160, 320 in series), 20 mM KCl, 1 mM DTT, room temperature, 30-45 min; BLI: 20 mM Tris-HCl pH 7.4, 80 mM NaCl, 20 mM KCl, 1 mM DTT, room temperature. The conditions noted are these: protein: recombinant; tags: C-terminal His (pET-30a(+), NdeI/HindIII); chain copies: 2; label: [alpha-32P]GTP, internal.

The target in data set [5] is T2, FCoV nucleocapsid protein N. Description: filter binding; 160 mM NaCl; Filter binding: 40 mM Tris-HCl pH 7.4, 80 mM NaCl (160, 320 in series), 20 mM KCl, 1 mM DTT, room temperature, 30-45 min; BLI: 20 mM Tris-HCl pH 7.4, 80 mM NaCl, 20 mM KCl, 1 mM DTT, room temperature. Particulars: protein: recombinant; tags: C-terminal His (pET-30a(+), NdeI/HindIII); chain copies: 2; label: [alpha-32P]GTP, internal.

For data set [6] the target is unchanged. Description: filter binding; 320 mM NaCl; Filter binding: 40 mM Tris-HCl pH 7.4, 80 mM NaCl (160, 320 in series), 20 mM KCl, 1 mM DTT, room temperature, 30-45 min; BLI: 20 mM Tris-HCl pH 7.4, 80 mM NaCl, 20 mM KCl, 1 mM DTT, room temperature. The conditions noted are these: protein: recombinant; tags: C-terminal His (pET-30a(+), NdeI/HindIII); chain copies: 2; label: [alpha-32P]GTP, internal.

Data set [7] has the same target. Nature of the data set: BLI; 80 mM NaCl; kass 3.195e5 M-1s-1, kdis 5.931e-3 s-1; Filter binding: 40 mM Tris-HCl pH 7.4, 80 mM NaCl (160, 320 in series), 20 mM KCl, 1 mM DTT, room temperature, 30-45 min; BLI: 20 mM Tris-HCl pH 7.4, 80 mM NaCl, 20 mM KCl, 1 mM DTT, room temperature. The conditions noted are these: protein: recombinant; tags: C-terminal His (pET-30a(+), NdeI/HindIII); chain copies: 2.

As for `O=C(O)c1cccc2c1NC(c1cccc(Br)c1)C1CC=CC21` (stereo not shown) [K31, 4-(3-Bromophenyl)-3a,4,5,9b-tetrahydro-3H-cycloppenta [c] quinoline-6-carboxylix acid], in data set [1], the Kd was 350 ± 17 nM. In data set [2], the Ki was around 246 nM. Moreover, the half-maximal inhibitory concentration (IC50) in data set [3] was around 850 nM.

With ACUUUUAAAGUAAAGUGAGUGUAGCGUGGCUAUAAC (ssRNA) [vRNA 5' NCR (36 nt, radiolabeled)], the equilibrium dissociation constant (Kd) in data set [4] came out at 29 ± 1.6 nM; in data set [5] it was 30.7 ± 7.5 nM; in data set [6], 35 ± 7 nM.

For ACUUUUAAAGUAAAGUGAGUGUAGCGUGGCUAUAAC (ssRNA) [vRNA 5' NCR (36 nt, biotinylated)], in data set [7], the Kd was determined as 18 ± 1.8 nM.

Source of the values: PMC10011503, “A novel compound targets the feline infectious peritonitis virus nucleocapsid protein and inhibits viral replication in cell culture” (The Journal of Biological Chemistry, 2023).
